# According to US20110256153A1 (IMMUNOGEN, published 2011):
# T1: human CD37 (human, UniProt P11049 1-278)
# T1 construct: Tetraspanin antigen; Expressed on 300-19 cells transfected with pSRa-CD37 (entire CDS) or endogenous on WSU-DLCL-2, BJAB and Ramos lymphoma cells; also called CD37 antigen; human CD37 wildtype
# T1 sequence: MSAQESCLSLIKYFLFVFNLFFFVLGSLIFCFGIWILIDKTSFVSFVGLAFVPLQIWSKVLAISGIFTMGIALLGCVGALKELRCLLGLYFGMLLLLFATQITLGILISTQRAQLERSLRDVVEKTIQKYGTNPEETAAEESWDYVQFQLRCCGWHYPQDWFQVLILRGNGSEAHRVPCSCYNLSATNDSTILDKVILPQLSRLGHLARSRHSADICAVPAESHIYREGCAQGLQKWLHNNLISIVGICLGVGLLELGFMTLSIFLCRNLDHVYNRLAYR
# T2: hCD37-M45 (human/murine chimera, UniProt P11049 1-281)
# T2 construct: stably expressed on 300-19 cells; also called hCD37-M45 variant
# T2 chain: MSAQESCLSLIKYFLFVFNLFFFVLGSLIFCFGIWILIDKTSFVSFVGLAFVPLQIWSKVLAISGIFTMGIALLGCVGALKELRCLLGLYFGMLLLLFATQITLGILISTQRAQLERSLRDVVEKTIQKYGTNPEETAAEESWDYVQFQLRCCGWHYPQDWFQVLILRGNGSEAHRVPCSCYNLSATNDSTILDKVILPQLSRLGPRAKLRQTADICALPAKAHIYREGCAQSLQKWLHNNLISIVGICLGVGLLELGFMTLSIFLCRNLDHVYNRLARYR
# T3: macaque CD37 (macaque, UniProt P11049 1-277 (human entry))
# T3 construct: Expressed on 300-19 cells transfected with pSRa-CD37mac (300-19/CD37mac cells); also called macaca CD37; macaque derived CD37 antigen
# T3 chain: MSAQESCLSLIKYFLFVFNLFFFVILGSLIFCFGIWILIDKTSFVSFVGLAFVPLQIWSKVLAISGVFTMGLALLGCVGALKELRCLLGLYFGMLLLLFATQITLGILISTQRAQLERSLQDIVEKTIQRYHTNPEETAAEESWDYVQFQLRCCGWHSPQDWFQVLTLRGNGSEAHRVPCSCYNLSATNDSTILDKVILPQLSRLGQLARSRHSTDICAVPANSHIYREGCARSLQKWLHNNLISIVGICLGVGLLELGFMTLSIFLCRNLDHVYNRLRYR
# B1: muCD37-3 (antibody, mouse IgG2a, kappa)
# heavy: QVQVKESGPGLVAPSQSLSITCTVSGFSLTTSGVSWVRQPPGKGLEWLGVIWGDGSTNYHSALKSRLSIKKDHSKSQVFLKLNSLQTDDTATYYCAKGGYSLAHWGQGTLVTVSAAKTTAPSVYPLAPVCGDTTGSSVTLGCLVKGYFPEPVTLTWNSGSLSSGVHTFPAVLQSDLYTLSSSVTVTSSTWPSQSITCNVAHPASSTKVDKKIEPRGPTIKPCPPCKCPAPNLLGGPSVFIFPPKIKDVLMISLSPIVTCVVVDVSEDDPDVQISWFVNNVEVHTAQTQTHREDYNSTLRVVSALPIQHQDWMSGKEFKCKVNNKDLPAPIERTISKPKGSVRAPQVYVLPPPEEEMTKKQVTLTCMVTDFMPEDIYVEWTNNGKTELNYKNTEPVLDSDGSYFMYSKLRVEKKNWVERNSYSCSVVHEGLHNHHTTKSFSRTPGK
# light: DIQMTQSPASLSVSVGETVTITCRASENIRSNLAWYQQKQGKSPQLLVNVATNLADGVPSRFSGSGSGTQYSLKINSLQSEDFGTYYCQHYWGTTWTFGGGTKLEIKRADAAPTVSIFPPSSEQLTSGGASVVCFLNNFYPKDINVKWKIDGSERQNGVLNSWTDQDSKDSTYSMSSTLTLTKDEYERHNSYTCEATHKTSTSPIVKSFNRNEC
# notes: Murine hybridoma antibody; also called murine CD37-3 antibody; muCD37-3-PE
# What was measured:
# human CD37 [1] = biological target: T1, human CD37; assay: competition flow cytometry on BJAB cells; competitor PE-labeled muCD37-3 (1 nM)
# Method: Flow cytometry binding assays using BJAB cells and a competitive binding format were used to evaluate binding affinity of chimeric and humanized versions of CD37-3. BJAB cells were incubated with a 1 nM concentration of PE-labeled muCD37-3 antibody and competition was measured by adding varying amounts of muCD37-3, chCD37-3, huCD37-3v1.0 or huCD37-3v1.01. The samples were incubated for 3 hrs at 4° C. Then, the cells were pelleted, washed with FACS buffer and resuspended in 200 μL of PBS containing 1% formaldehyde. Samples were acquired using a FACSCalibur flow cytometer with the HTS multiwell sampler and analyzed using CellQuest Pro (all from BD Biosciences, San Diego, US). The resulting mean PE fluorescence was plotted against the amount of competing antibody used in a semi-log plot. FIG. 9B depicts the dose-response curves generated by non-linear regression for each antibody. The value for the apparent dissociation constant (Kd) of each antibody was calculated using GraphPad Prism v4 (GraphPad software, San Diego, Calif.).
# human CD37 [2] = biological target: T1, human CD37; assay: flow cytometry titration on BJAB cells; apparent Kd
# Method in brief: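 BJAB cells were incubated 3 h with titrated antibody in RPMI-1640 containing 2% goat serum, then 1 h with FITC anti-mouse or anti-human IgG, fixed in 1% formaldehyde and read by flow cytometry. Apparent Kd was derived by non-linear regression of the dose-response curves.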
# hCD37-M45 = biological target: T2, hCD37-M45; assay: flow cytometry, 300-19 cells expressing hCD37-M45
# Method: Binding specificity was tested by flow cytometry using purified antibodies. […] All murine antibodies were incubated for 3 h with either CD37-expressing 300-19 cells or the non-transfected 300-19 cells (1×10⁵ cells per sample) in 100 μL FACS buffer (RPMI-1640 medium supplemented with 2% normal goat serum). Then, the cells were pelleted, washed, and incubated for 1 h with 100 μL of FITC-conjugated goat anti-mouse IgG-antibody (Jackson Laboratory, 6 μg/mL in FACS buffer). The cells were pelleted again, washed with FACS buffer and resuspended in 200 μL of PBS containing 1% formaldehyde. Samples were acquired using a FACSCalibur flow cytometer with the HTS multiwell sampler or a FACS array flow cytometer and analyzed using CellQuest Pro (all from BD Biosciences, San Diego, US).
# Binding of various CD37 antibodies to cells expressing human CD37 wildtype and variants was analyzed by flow cytometry using 1.5 μg/mL of each antibody. The isolated antibodies of this invention were compared to commercially available CD37 antibody WR17, as well as the TRU-016 SMIP. […] Likewise, all antibodies tested bound the hCD37-M3 variant (FIG. 18B). In contrast, the isolated antibodies of this invention bound the hCD37-M1 variant, while TRU-016 and WR17 were unable to bind hCD37-M1 variant (FIG. 19A). The CD37-50 and CD37-51 antibodies and TRU-016 were also able to bind the hCD37-M45 variant. […] In contrast, the CD37-3, CD37-12, CD37-38, CD37-56 and CD37-57 antibodies require at least one of the AA residues in the hCD37-M45 variant that were changed to the corresponding murine AA residues for binding to the CD37 antigen.
# macaque CD37 = biological target: T3, macaque CD37; assay: flow cytometry, 300-19/CD37mac cells
# Method in brief: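 300-19 cells transfected with macaque CD37, alongside non-transfected 300-19 cells (1×10⁵ per sample), incubated 3 h with purified antibodies in RPMI-1640 with 2% normal goat serum. Bound antibody detected with FITC-conjugated anti-mouse or anti-human secondary for 1 h. Cells fixed in 1% formaldehyde before flow cytometry.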
binder,measurement,setting,value
B1,EC50,human CD37 [1],0.8 nM
same,Kd,human CD37 [2],0.2 nM
same,binding result,hCD37-M45,no binding (tested: 1.5 µg/mL)
same,binding result,macaque CD37,no binding
